The values that follow come from paper PMC7226629.

The target in test [1] is CCR5 (human (endogenous in SNU387, PLC/PRF-5, SK-HEP-1)) (UniProt P51681).
Test [2] has the same target. This is another data set of the same source.

Sequence of UniProt P51681 (P51681 whole entry): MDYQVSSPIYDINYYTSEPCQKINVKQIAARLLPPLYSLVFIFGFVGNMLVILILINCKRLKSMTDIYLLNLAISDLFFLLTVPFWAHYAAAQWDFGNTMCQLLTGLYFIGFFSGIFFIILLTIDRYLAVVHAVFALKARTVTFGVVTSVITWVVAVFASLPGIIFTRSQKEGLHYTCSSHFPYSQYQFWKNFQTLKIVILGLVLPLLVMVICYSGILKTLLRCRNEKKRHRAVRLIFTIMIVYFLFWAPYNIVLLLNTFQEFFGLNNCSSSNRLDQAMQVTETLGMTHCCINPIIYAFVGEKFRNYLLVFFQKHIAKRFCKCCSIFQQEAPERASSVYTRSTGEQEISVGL

In test [1], “CCL5 recombinant protein (from UniProt P13501 24-91) (ligand)” had an Akt-1 mRNA (qRT-PCR) in PLC/PRF-5 cells treated with CCL5; diminished by maraviroc of 1.3 fold; an Akt-1 mRNA (qRT-PCR) in SK-HEP-1 cells treated with CCL5; diminished by maraviroc of 1.2 fold; an E-cadherin mRNA (qRT-PCR) in PLC/PRF-5 cells after exposure to maraviroc, compared to CCL5-treated cells of 0.3 fold; an E-cadherin mRNA (qRT-PCR) in SK-HEP-1 cells after exposure to maraviroc, compared to CCL5-treated cells of 0.8 fold. In test [1], the beta-catenin mRNA (qRT-PCR) in PLC/PRF-5 cells treated with CCL5; diminished by maraviroc amounted to 1.7 fold and the beta-catenin mRNA (qRT-PCR) in SK-HEP-1 cells treated with CCL5; diminished by maraviroc was found to be 1.3 fold. Further, the caspase-3 mRNA (qRT-PCR) in HCC cells: down-regulated with CCL5, higher with CCL5 plus maraviroc in two of the three cell lines in test [2] was found to be 0.5 fold.
